Source: patent US20180155451A1 (published 2018)

T1: FcγRIIa R (human, UniProt P12318 34-217)
T1 construct: extracellular domain; Soluble extracellular domain with C-terminal His tag, expressed in FreeStyle293 cells; also called FcgRIIa R; FcγRIIa type R; not shown: His tag attached to the C terminus
T1 sequence (looked up): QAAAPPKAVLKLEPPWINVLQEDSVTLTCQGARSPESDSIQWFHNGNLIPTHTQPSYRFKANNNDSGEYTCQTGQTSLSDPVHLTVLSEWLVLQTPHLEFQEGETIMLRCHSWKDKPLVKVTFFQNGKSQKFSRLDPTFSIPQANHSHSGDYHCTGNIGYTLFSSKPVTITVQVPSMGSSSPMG


Molecular target: T1, FcγRIIa R
Test: SPR (Biacore), antibody captured via antigen peptide, FcγRIIa R as analyte; homodimerized antibody
Experimental: Analysis of interaction between objective antibody and the FcγR was carried out using Biacore T100 (GE Healthcare). HBS-EP+ (GE Healthcare) was used as the running buffer, and the measurement temperature was set to 25° C. Chips produced by immobilizing the antigen peptide by the amine coupling method to a Series S Sencor Chip CM5 (GE Healthcare), or alternatively, chips produced by allowing preliminarily biotinylated antigen peptides to interact with and immobilize onto a Series S Sensor Chip SA (certified) (GE Healthcare) were used. Antibodies of interest were captured onto an antigen peptide-immobilized chip, and allowed to interact to each FcγR diluted with running buffer. To regenerate and repeatedly use the chip, the antibodies captured on the chip were washed off by reacting 10 mM glycine-HCl, pH 1.5.

Binder	Ho/Con_2aR
GpH7-B3 variant K334_14T/GpL16-k0 (antibody, human IgG1, kappa, homodimerized; mutation in both H chains; also called Ho Ab) heavy: not shown light: DIVMTQSPLSLPVTPGEPASISCQASESLVHSNRNTYLHWYLQKPGQSPQLLIYKVSNRFSGVPDRFSGSGSGTDFTLKISRVEAEDVGVYYCSQNTHVPPTFGQGTKVEIERTVAAPSVFIFPPSDEQLKSGTASVVCLLNNFYPREAKVQWKVDNALQSGNSQESVTEQDSKDSTYSLSSTLTLSKADYEKHKVYACEVTHQGLSSPVTKSFNRGEC	117 % of control (GpH7-B3/GpL16-k0 = 100)
GpH7-B3 variant S239_01G/GpL16-k0 (antibody, human IgG1, kappa, homodimerized; mutation in both H chains; also called Ho Ab) heavy: not shown light: DIVMTQSPLSLPVTPGEPASISCQASESLVHSNRNTYLHWYLQKPGQSPQLLIYKVSNRFSGVPDRFSGSGSGTDFTLKISRVEAEDVGVYYCSQNTHVPPTFGQGTKVEIERTVAAPSVFIFPPSDEQLKSGTASVVCLLNNFYPREAKVQWKVDNALQSGNSQESVTEQDSKDSTYSLSSTLTLSKADYEKHKVYACEVTHQGLSSPVTKSFNRGEC	132 % of control (GpH7-B3/GpL16-k0 = 100)
GpH7-B3 variant K326_10E/GpL16-k0 (antibody, human IgG1, kappa, homodimerized; mutation in both H chains; also called Ho Ab) heavy: not shown light: DIVMTQSPLSLPVTPGEPASISCQASESLVHSNRNTYLHWYLQKPGQSPQLLIYKVSNRFSGVPDRFSGSGSGTDFTLKISRVEAEDVGVYYCSQNTHVPPTFGQGTKVEIERTVAAPSVFIFPPSDEQLKSGTASVVCLLNNFYPREAKVQWKVDNALQSGNSQESVTEQDSKDSTYSLSSTLTLSKADYEKHKVYACEVTHQGLSSPVTKSFNRGEC	156 % of control (GpH7-B3/GpL16-k0 = 100)
GpH7-B3 variant K334_15Y/GpL16-k0 (antibody, human IgG1, kappa, homodimerized; mutation in both H chains; also called Ho Ab) heavy: not shown light: DIVMTQSPLSLPVTPGEPASISCQASESLVHSNRNTYLHWYLQKPGQSPQLLIYKVSNRFSGVPDRFSGSGSGTDFTLKISRVEAEDVGVYYCSQNTHVPPTFGQGTKVEIERTVAAPSVFIFPPSDEQLKSGTASVVCLLNNFYPREAKVQWKVDNALQSGNSQESVTEQDSKDSTYSLSSTLTLSKADYEKHKVYACEVTHQGLSSPVTKSFNRGEC	112 % of control (GpH7-B3/GpL16-k0 = 100)
GpH7-B3 variant K326_09D/GpL16-k0 (antibody, human IgG1, kappa, homodimerized; mutation in both H chains; also called Ho Ab) heavy: not shown light: DIVMTQSPLSLPVTPGEPASISCQASESLVHSNRNTYLHWYLQKPGQSPQLLIYKVSNRFSGVPDRFSGSGSGTDFTLKISRVEAEDVGVYYCSQNTHVPPTFGQGTKVEIERTVAAPSVFIFPPSDEQLKSGTASVVCLLNNFYPREAKVQWKVDNALQSGNSQESVTEQDSKDSTYSLSSTLTLSKADYEKHKVYACEVTHQGLSSPVTKSFNRGEC	158 % of control (GpH7-B3/GpL16-k0 = 100)
GpH7-B3 variant K334_16H/GpL16-k0 (antibody, human IgG1, kappa, homodimerized; mutation in both H chains; also called Ho Ab) heavy: not shown light: DIVMTQSPLSLPVTPGEPASISCQASESLVHSNRNTYLHWYLQKPGQSPQLLIYKVSNRFSGVPDRFSGSGSGTDFTLKISRVEAEDVGVYYCSQNTHVPPTFGQGTKVEIERTVAAPSVFIFPPSDEQLKSGTASVVCLLNNFYPREAKVQWKVDNALQSGNSQESVTEQDSKDSTYSLSSTLTLSKADYEKHKVYACEVTHQGLSSPVTKSFNRGEC	111 % of control (GpH7-B3/GpL16-k0 = 100)
GpH7-B3 variant K326_06M/GpL16-k0 (antibody, human IgG1, kappa, homodimerized; mutation in both H chains; also called Ho Ab) heavy: not shown light: DIVMTQSPLSLPVTPGEPASISCQASESLVHSNRNTYLHWYLQKPGQSPQLLIYKVSNRFSGVPDRFSGSGSGTDFTLKISRVEAEDVGVYYCSQNTHVPPTFGQGTKVEIERTVAAPSVFIFPPSDEQLKSGTASVVCLLNNFYPREAKVQWKVDNALQSGNSQESVTEQDSKDSTYSLSSTLTLSKADYEKHKVYACEVTHQGLSSPVTKSFNRGEC	143 % of control (GpH7-B3/GpL16-k0 = 100)
GpH7-B3 variant K334_03V/GpL16-k0 (antibody, human IgG1, kappa, homodimerized; mutation in both H chains; also called Ho Ab) heavy: not shown light: DIVMTQSPLSLPVTPGEPASISCQASESLVHSNRNTYLHWYLQKPGQSPQLLIYKVSNRFSGVPDRFSGSGSGTDFTLKISRVEAEDVGVYYCSQNTHVPPTFGQGTKVEIERTVAAPSVFIFPPSDEQLKSGTASVVCLLNNFYPREAKVQWKVDNALQSGNSQESVTEQDSKDSTYSLSSTLTLSKADYEKHKVYACEVTHQGLSSPVTKSFNRGEC	123 % of control (GpH7-B3/GpL16-k0 = 100)
GpH7-B3 variant K326_19Q/GpL16-k0 (antibody, human IgG1, kappa, homodimerized; mutation in both H chains; also called Ho Ab) heavy: not shown light: DIVMTQSPLSLPVTPGEPASISCQASESLVHSNRNTYLHWYLQKPGQSPQLLIYKVSNRFSGVPDRFSGSGSGTDFTLKISRVEAEDVGVYYCSQNTHVPPTFGQGTKVEIERTVAAPSVFIFPPSDEQLKSGTASVVCLLNNFYPREAKVQWKVDNALQSGNSQESVTEQDSKDSTYSLSSTLTLSKADYEKHKVYACEVTHQGLSSPVTKSFNRGEC	137 % of control (GpH7-B3/GpL16-k0 = 100)

Continued, values first:

Ho/Con_2aR	Binder
111 % of control (GpH7-B3/GpL16-k0 = 100)	GpH7-B3 variant I332_15Y/GpL16-k0 (antibody, human IgG1, kappa, homodimerized; mutation in both H chains; also called Ho Ab) heavy: not shown light: DIVMTQSPLSLPVTPGEPASISCQASESLVHSNRNTYLHWYLQKPGQSPQLLIYKVSNRFSGVPDRFSGSGSGTDFTLKISRVEAEDVGVYYCSQNTHVPPTFGQGTKVEIERTVAAPSVFIFPPSDEQLKSGTASVVCLLNNFYPREAKVQWKVDNALQSGNSQESVTEQDSKDSTYSLSSTLTLSKADYEKHKVYACEVTHQGLSSPVTKSFNRGEC
141 % of control (GpH7-B3/GpL16-k0 = 100)	GpH7-B3 variant K326_14T/GpL16-k0 (antibody, human IgG1, kappa, homodimerized; mutation in both H chains; also called Ho Ab) heavy: not shown light: DIVMTQSPLSLPVTPGEPASISCQASESLVHSNRNTYLHWYLQKPGQSPQLLIYKVSNRFSGVPDRFSGSGSGTDFTLKISRVEAEDVGVYYCSQNTHVPPTFGQGTKVEIERTVAAPSVFIFPPSDEQLKSGTASVVCLLNNFYPREAKVQWKVDNALQSGNSQESVTEQDSKDSTYSLSSTLTLSKADYEKHKVYACEVTHQGLSSPVTKSFNRGEC
121 % of control (GpH7-B3/GpL16-k0 = 100)	GpH7-B3 variant K334_07I/GpL16-k0 (antibody, human IgG1, kappa, homodimerized; mutation in both H chains; also called Ho Ab) heavy: not shown light: DIVMTQSPLSLPVTPGEPASISCQASESLVHSNRNTYLHWYLQKPGQSPQLLIYKVSNRFSGVPDRFSGSGSGTDFTLKISRVEAEDVGVYYCSQNTHVPPTFGQGTKVEIERTVAAPSVFIFPPSDEQLKSGTASVVCLLNNFYPREAKVQWKVDNALQSGNSQESVTEQDSKDSTYSLSSTLTLSKADYEKHKVYACEVTHQGLSSPVTKSFNRGEC
113 % of control (GpH7-B3/GpL16-k0 = 100)	GpH7-B3 variant K334_18N/GpL16-k0 (antibody, human IgG1, kappa, homodimerized; mutation in both H chains; also called Ho Ab) heavy: not shown light: DIVMTQSPLSLPVTPGEPASISCQASESLVHSNRNTYLHWYLQKPGQSPQLLIYKVSNRFSGVPDRFSGSGSGTDFTLKISRVEAEDVGVYYCSQNTHVPPTFGQGTKVEIERTVAAPSVFIFPPSDEQLKSGTASVVCLLNNFYPREAKVQWKVDNALQSGNSQESVTEQDSKDSTYSLSSTLTLSKADYEKHKVYACEVTHQGLSSPVTKSFNRGEC
124 % of control (GpH7-B3/GpL16-k0 = 100)	GpH7-B3 variant L328_06M/GpL16-k0 (antibody, human IgG1, kappa, homodimerized; mutation in both H chains; also called Ho Ab) heavy: not shown light: DIVMTQSPLSLPVTPGEPASISCQASESLVHSNRNTYLHWYLQKPGQSPQLLIYKVSNRFSGVPDRFSGSGSGTDFTLKISRVEAEDVGVYYCSQNTHVPPTFGQGTKVEIERTVAAPSVFIFPPSDEQLKSGTASVVCLLNNFYPREAKVQWKVDNALQSGNSQESVTEQDSKDSTYSLSSTLTLSKADYEKHKVYACEVTHQGLSSPVTKSFNRGEC
148 % of control (GpH7-B3/GpL16-k0 = 100)	GpH7-B3 variant P238_08L/GpL16-k0 (antibody, human IgG1, kappa, homodimerized; mutation in both H chains; also called Ho Ab) heavy: not shown light: DIVMTQSPLSLPVTPGEPASISCQASESLVHSNRNTYLHWYLQKPGQSPQLLIYKVSNRFSGVPDRFSGSGSGTDFTLKISRVEAEDVGVYYCSQNTHVPPTFGQGTKVEIERTVAAPSVFIFPPSDEQLKSGTASVVCLLNNFYPREAKVQWKVDNALQSGNSQESVTEQDSKDSTYSLSSTLTLSKADYEKHKVYACEVTHQGLSSPVTKSFNRGEC
145 % of control (GpH7-B3/GpL16-k0 = 100)	GpH7-B3 variant L328_04F/GpL16-k0 (antibody, human IgG1, kappa, homodimerized; mutation in both H chains; also called Ho Ab) heavy: not shown light: DIVMTQSPLSLPVTPGEPASISCQASESLVHSNRNTYLHWYLQKPGQSPQLLIYKVSNRFSGVPDRFSGSGSGTDFTLKISRVEAEDVGVYYCSQNTHVPPTFGQGTKVEIERTVAAPSVFIFPPSDEQLKSGTASVVCLLNNFYPREAKVQWKVDNALQSGNSQESVTEQDSKDSTYSLSSTLTLSKADYEKHKVYACEVTHQGLSSPVTKSFNRGEC
116 % of control (GpH7-B3/GpL16-k0 = 100)	GpH7-B3 variant L328_03V/GpL16-k0 (antibody, human IgG1, kappa, homodimerized; mutation in both H chains; also called Ho Ab) heavy: not shown light: DIVMTQSPLSLPVTPGEPASISCQASESLVHSNRNTYLHWYLQKPGQSPQLLIYKVSNRFSGVPDRFSGSGSGTDFTLKISRVEAEDVGVYYCSQNTHVPPTFGQGTKVEIERTVAAPSVFIFPPSDEQLKSGTASVVCLLNNFYPREAKVQWKVDNALQSGNSQESVTEQDSKDSTYSLSSTLTLSKADYEKHKVYACEVTHQGLSSPVTKSFNRGEC
140 % of control (GpH7-B3/GpL16-k0 = 100)	GpH7-B3 variant L328_07I/GpL16-k0 (antibody, human IgG1, kappa, homodimerized; mutation in both H chains; also called Ho Ab) heavy: not shown light: DIVMTQSPLSLPVTPGEPASISCQASESLVHSNRNTYLHWYLQKPGQSPQLLIYKVSNRFSGVPDRFSGSGSGTDFTLKISRVEAEDVGVYYCSQNTHVPPTFGQGTKVEIERTVAAPSVFIFPPSDEQLKSGTASVVCLLNNFYPREAKVQWKVDNALQSGNSQESVTEQDSKDSTYSLSSTLTLSKADYEKHKVYACEVTHQGLSSPVTKSFNRGEC
123 % of control (GpH7-B3/GpL16-k0 = 100)	GpH7-B3 variant K326_16H/GpL16-k0 (antibody, human IgG1, kappa, homodimerized; mutation in both H chains; also called Ho Ab) heavy: not shown light: DIVMTQSPLSLPVTPGEPASISCQASESLVHSNRNTYLHWYLQKPGQSPQLLIYKVSNRFSGVPDRFSGSGSGTDFTLKISRVEAEDVGVYYCSQNTHVPPTFGQGTKVEIERTVAAPSVFIFPPSDEQLKSGTASVVCLLNNFYPREAKVQWKVDNALQSGNSQESVTEQDSKDSTYSLSSTLTLSKADYEKHKVYACEVTHQGLSSPVTKSFNRGEC
157 % of control (GpH7-B3/GpL16-k0 = 100)	GpH7-B3 variant L328_15Y/GpL16-k0 (antibody, human IgG1, kappa, homodimerized; mutation in both H chains; also called Ho Ab) heavy: not shown light: DIVMTQSPLSLPVTPGEPASISCQASESLVHSNRNTYLHWYLQKPGQSPQLLIYKVSNRFSGVPDRFSGSGSGTDFTLKISRVEAEDVGVYYCSQNTHVPPTFGQGTKVEIERTVAAPSVFIFPPSDEQLKSGTASVVCLLNNFYPREAKVQWKVDNALQSGNSQESVTEQDSKDSTYSLSSTLTLSKADYEKHKVYACEVTHQGLSSPVTKSFNRGEC
